Results from publication PMC6969876, “NADPH biosensor-based identification of an alcohol dehydrogenase variant with improved catalytic properties caused by a single charge reversal at the protein surface” (AMB Express, 2020).

Molecular target: LbADH^K71E, variant of the NADPH-dependent alcohol dehydrogenase of Lactobacillus brevis, with N-terminal Strep-tag II (Lactobacillus brevis)
Assay: SEC; Superdex 200 increase 10/300 GL, buffer A (50 mM triethanolamine hydrochloride, 1 mM MgCl2, pH 7.0), 0.75 mL/min; apparent native mass from a calibration curve with carbonic anhydrase, bovine serum albumin, alcohol dehydrogenase and beta-amylase; affinity-purified protein loaded

- stoichiometry N: 4
Substance: LbADH^K71E, variant of the NADPH-dependent alcohol dehydrogenase of Lactobacillus brevis, with N-terminal Strep-tag II (enzyme)
